Assay: label from the status in PepcDB records
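Note: failed if final PepcDB status was selected cloned or expressed and not failed if soluble or beyond.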

Which protein production does the source give for “MKRKTLLMAALMGGCSLQGMAQQITPKDVAGDKEYNRVCREYELKGGDSMELLQAYLDKYPDSRHKNRVLSLIASAYFMEGKYKEAIALFRSCDLEALPDKERDDCAMRLATSYLKEDNLREAAVWFTLLKEVSPLYQDDAVYNLAYIDYVEKRYDKALKSFQSLQNDAVYAALVPYYIGEIYLVKGNYQQARTVAKAYLEQYPAKKDVPQMERIWGEACFGLNDYQAAIPPLERYRESVSHPQRKPLYELGMSYYYTGVYSKAAATLGEMASVHDALSQNAYLHMGLAYLNLKERNRARMAFEQAANFSFDPKVKEQALYNYALCIHETSYSPFAESVTVFERFLNEFPNSPYTERVNDYLIEVYMNTRSYEAALKSIAKIEHPGTRIMEAKQKILFRLGTQAFANARFQEALEFFNQSLAVGQYNQATKADAYFWRGESNYRLDRFPQAGNDYRLYLEFATSKNGQEYGLALYNLGYTYFKQKNYGNAGTWFTRFVDRGSINERTMQADAYNRIGDCNFYDRRFEQARQDYARAVEIDPSLGDYSLYQEAFVRGLQRDYNGKVQTLNRLISDYPESQYMDDALYEQGRAFVQMEDNANAIARFNILVKKFPESNVARRAANEIGLLYYQDDKYPEAIQAYKQVIAGYPGSEEARLAQRDLKSIYIDLNKVDEYANFASTIPGGANFDVNERDSLTYVAAERVYMRGEVAEARNSFTRYLQTFPEGAFSLNANYYIGLIDYNQKAYESAARHLDKVLEYPNNKYSEDAMLMGAEMAYTAKDYEKALHIYKQLKDKAASMERRRLAKTGMLRSAHMLGNEEEIIFAATDLLADTKLAPELSNEAHYYRAKAYLDAGKTDGAMEDLKVLAKDTRNVYGAEAKYKVAQIYFDGGQTDKAEQEVLNYIEVSTPHTYWLARSFVLLADVYMKLGRNLDAKQYLLSLKQNYQADDDIAGMIESRLEKLKTEN” here?
The protein production was “failed”.

For “MKRLFIASLLAFAPFTWALDQAGSQRLSDLQQRWAQIQYQMPKDKRADAFEKLAGDAATFVRQYPGTPEPLIWEGIINSSWAGATGGLGALGKVKAAKASLEQAMKLDPAALQGSAYTSLGTLYDQVPGWPIGFGDAEMADKMLRKALQINPNGIDSNYFWADHLYRQKRYPEATAALQKALQAPPRPGRELADQGRRADIDALLKTIKDKQD”, which protein production is on record?
Its protein production is “failed”.

Which protein production does the source give for “MKRNNKSAIALIALSLLALSSGAAFAGHHWGNNDGMWQQGGSPLTTEQQATAQKIYDDYYTQTSALRQQLISKRYEYNALLTASSPDTAKINAVAKEMESLGQKLDEQRVKRDVAMAQAGIPRGAGMGYGGCGGYGGGYHRGGGHMGMGNW” here?
The protein production was “not failed”.

For “MKRPRGKPLFKPVKERNPVAVGVAGLLVLTLVALLVYNVDRLPFGGGTTYSADFSESAGLDEGDEVRIAGVKVGQVTGVALDGAKVKVSFEVEDAWIGDRTTAAIAIKTVLGDKYLALDPLGSGRQDPGARIPLARTTSPYDVTQAFQDLSGTVDDIDTGRLAESFETISDTFKDSPPHVRKAATGLSDLSKSISKRDAKLSELLKGSARFTKTLENNKSSFETLIEDGGPLLGELRDRRTAINALLKGSQDLGTELGGLVKDNEKQLGPTLKALGRVTSVLEKNNTRLGETLALVGPYYRLVGNTLGNGRWFDSYLCGVVPRDYLPETSQPSTGCLPPKQPAAAQGSGARLEHHHHHH”, which protein production is on record?
The protein production was “failed”.

Which protein production does the source give for “MKRSCMPARSNRNRINSALRGQLLRYLLNGLVATAVHYTILRFTLEVLGLHSAGLANGIAAIFGIIVSFIGNRYFVFRIVQVPLAKQALLFILTYFCIALIHTCILYFWTDVYNLNYTLGFLMATAMQVVFSFFSNKFMVFK” here?
The protein production was “failed”.

With “MKRSSLLVRMVISIFLVFLILLALVGTFYYQSSSSAIEATIEGNSQTTISQTSHFIQSYIKKLETTSTGLTQQTDVLAYAENPSQDKVEGIRDLFLTILKSDKDLKTVVLVTKSGQVISTDDSVQMKTSSDMMAEDWYQKAIHQGAMPVLTPARKSDSQWVISVTQELVDAKGANLGVLRLDISYETLEAYLNQLQLGQQGFAFIINENHEFVYHPQHTVYSSSSKMEAMKPYIDTGQGYTPGHKSYVSQEKIAGTDWTVLGVSSLEKLDQVRSQLLWTLLGASVTSLLVCLCLVWFSLKRWIAPLKDLRETMLEIASGAQNLRAKEVGAYELREVTRQFNAMLDQIDQLMVAIRSQEETTRQYQLQALSSQINPHFLYNTLDTIIWMAEFHDSQRVVQVTKSLATYFRLALNQGKDLICLSDEINHVRQYLFIQKQRYGDKLEYEINENVAFDNLVLPKLVLQPLVENALYHGIKEKEGQGHIKLSVQKQDSGLVIRIEDDGVGFQDAGDSSQSQLKRGGVGLQNVDQRLKLHFGANYHMKIDSRPQKGTKVEIYINRIETS” as the sequence, how does the protein production read?
Its protein production is “failed”.

For “MKRSTEFLKSLDVKLILILLALCVTSIAAIYSSQQTGQYGESNFAMKQGLNYIIGVVLLLLVASIDLDQLQKLSWPLYIVGFASLILLKILPVSTFTPEKLGAKRWFVFPLVGQIQPSEFFKISLLLVVASIAVKHNAQYMARTFQTDLKLVGKIVLVSLPPIAVVYSQPDTGMVFLYAAAIACILFMSGIQKKLIALCTVIPVTILSTLIFIYVRYEDFFFNKLVTLLKPHQQSRILGWLDPFEHTDQGYQTQQSILAVGSGGMEGKGFGEGNVYIPEKHTDFIFATIAEEGGFIVAALVVFLFLLLLYRTIIIGYSADNLFGTLLCAGSIGILTVQIFQNIGMIVGLMPVKGIALPFLSYGGSSLFSNMIMMGLILSVRKTYKKYMFSVK”, which protein production is on record?
Its protein production is “failed”.

Which protein production does the source give for “MKRVPWVVGGLILIMAYNAALGTLAYWQRRDIIDESLREAVVVADILVREVEANLDRIDRTLSGLTEVLRAYPSAIDVHDPFTHRLLLRRHAITPSLAALFLIGGDGRLRNASLTDKVSEIDVSGEDYFAFHLSNVDDEFFIGAVTTNRLDKSWVIPVSRAVRDSFGRLTGVVAATITTDSIDQMIHSHQLSEGFAVTITQRDAGMIGCLGFTRCWGEGAPHRGDEGLAESGGSGEEVHYLPNGPGVGAFLRGPTYGVEVTVQASDRTLLQPWREKLAFILVLQVFGTLGLGFGITSLYYQMHHRRVSLLDLERANASLESKVAERTRQLAEGEERMRGFIMAARDAVVIIDQKGIISEFNPSATELFGYDVEEVRGQSVNMLMPATYARDHDGHLRKGKPSGQRAIGRGREMIGRRKNGSEFPIELTVGTQSFDGTRVHIGVIRDITERKATEETLRRLANIDGLTGVLNRRSFTEESELLLSLANRHGRRLSMMIVDADHFKGVNDTYGHDAGDRVLKALTGEIAGVLRKTDLLGRIGGEEFAILLPETDQEGAEGLAWRVVLAIRALEVPLPEGGVLKVTVSVGVSCRNTEAATFDWMLKEADTALYAAKHGGRDRVACFGQTQSVARS” here?
The protein production was “failed”.

With “MKRVVEAWDRFQIPLYITALIAGALVGLQWPGSTGGFESAINPALMALLYATFLGIPITRIGAALKDLRFLIVLMSVNFVAVPLVAFALSRFIAGDEALLIGFLLVILAPCIDYVIVFAGLARAAQDKLLAATPILMLVQILLIPVFLAVFVGSDALGSISFGPFVEAFFLLILIPLVAAAGTQQVARKWQVGRTIMAAAEAIMVPLMMLTLFAVIASQVEAVSGQFTDIATVVPLYVAFLMVMIPIGGGISKLGGLGFKEQRAIVFSGATRNSLVVLPLALALPAGLEIAAVVVVTQTLVELIGMVVYVRIIPLIFHEKQTYRKLSGIGES” as the sequence, how does the protein production read?
The protein production was “failed”.

With “MKSASGQEKSIVVRRFDPARFVALVRKESLQAMRDPSTLLIALVLPLILLFLFAYAVSLDVRHVRIGVVLESPGATARTLADAFSGTHYLDVTFAYDRREVAGKLIAGELRGYVVIPQNFERHFADTGSPLVQIITDGSQPNTANFVANYAQGVVQTWMASLTETMPMPAVQLEPRYWFNPELASRRALVPGAIAIIMTIIGTLLTALVVAREWERGTMEAILSTPASVLEILVGKLLPYFVLGMLSTLIAAALAVFLFNVPLRGSLFALLVLSAVFMMPALGQGLLISSLARNQFLASQLALFSGYLPAFMLSGFLFEIDAMPALIRAITWLIPARYFVSSLKTIFLAGDVWSVFLPDLLGMATIGLIFFLIAQRYTRKSLE” as the sequence, how does the protein production read?
Its protein production is “failed”.

Which protein production does the source give for “MKSEMVLSFMATLAQEESHTKSEIMNASIEMRFRRGIFLTPTLLGYDHDEDGNLVVNEGEAKIVRLIFMMYLNGCTCQEIADTMTELGCETKKGNTVWSPGSILQILQNERHCGDVLARKTYTPNYLNHKSKKNMQNRPQYRKRNHHEAIISRDDFIAVQRLISNAKYGNKGILPELKVISNGVLKGFVSINPRWAGFKENDYISASLSVYDQMEQLSPSASSVEVQSGDFDLRGYEIARSQFFDGTDRITVTFSLNDIKFSTAAVRKLNSTLVELLLHPNKHLFAVRTASQAHRNAMQWAKKRGELSVPRAVSGTAFMPTVYALLGWNTDCRYRITGIRRGNGNDAVLLFNLEETEIFIPSDVIDEQQTSDARTDVKPFTDNQKKNVRAYPPDWADTFGSNYYCHAQAHELAGFNSRDVISNEAVAYKDSDIQVTSPDEVEKNIEQLMSDMKENSNELEHHHHHH” here?
Its protein production is “failed”.

Which protein production does the source give for “MKSFSIPIRFMLISSFFMSFGYFAVYAFLAIYLLSFLHFSTFQVGTVLTVIIITSRVIPLFSGLIADKIGYIIMMIAGLFLRGIGFIALGICSDFYTVSISSALIGFGTAFYEPAARAIFGSQPAHLRKNLFTYLNLSFNCGAIIGPIAGGFLLLLDPIYAFSLTGSLMLLFALIFYLLKNHFQVTTESTSIALGIQTILQNKSFLLFSFIMIFFYIMFTQLTVALPLHMKNISNSNQLATLVITINAITGVIFMVLFRKLFHKYNTLSFIKYGILLMSISFLLIPLFQHPYWLFICVIFFTIGETLVLPNADIAIANYSNESYTATFFGFYQLSLAFGFIIGNYTGTWFKSKLNGMYTPWLIFGGIGLIGFISLHILNIKKERSKEDIYLLEKY” here?
Its protein production is “failed”.

For “MKSKIFSTSLAFAFLLLITTVASAGQEIQITPYGERGLNPAIYDNKIAWLDKYINGSLHLRDLSTGKEIQITEDPWYSYLAVYNDKIVWGPGGQNIYLYNISTNHKTLLSIPESENQGSRDSLTIYGDKIVWRDQSGGYQDIYMYDLSTYNKTRITTNQSTKDPVIYGDKIVWQEDPSFGFGSSYHDIYVYNLSTSNKTRVTTNRSASSPNVYGDRIVYMESNNIYFHNLSTSLETQITFNGSRKDKLAIYGDRIVWQDDRNGNWDVYVYDLSEDKEIQITNDESDQLNPAIYGDKIVWEDYRNDRENMYYCSIYMYDFSAKPTMPFASFSANITSKSGNMPLTVLFTCNSTGGTPTSWYWDFGDGINSKHAQTATHTFKKPGTYDVSLTVTNFAGNSTLKKSNYITVTPQQAPIADFFSPEVYHANTYGGSVPTKTVSFVDNSTGSPTSWLWDFGDGNTSTEQNPTHVYDVEGGYTVNLTVKNVVGSNTTSKYGYVLVGLGDGSVAPEYFSSSVTSGDAPLKVTFHGGTGYANDWTFGDGSRQSVGENQTVEHTYLEPGQYTVSLSEYNVGGTAAITKYHYITVTGLTRPVASFTSEKVSVPMSLTIAFTDTSIGKPTSWYWDFGDGDSSTEQNPTHTYSAAGNYTVSLTASNENSTNSTFRVIDVFKTTGPFAYVISGNNISVIDTATDKVVDTIEIGSGLVGVAVNPTGTKVYVANEGNNTVSVIDTSISKVIATVNGLNSPYAIAITPDGKKAYVTNNSGAVFENGTVYVIDTGTSTVMNTVNVGSVPHGVAVSLDGAKVYVTNYYDISVIDTATNKVTATLNVGQYPDGIAVSPDGTKIYVTNGGSDNVSVIDTETNNVTATLPVGDNPVRVAVTPDGTKLYVTNYKGNTISVINTTTNTVTATIPGDGPYGVSITPDGKKVYVTNLGSDLSGKTVSVIDTAANTVIATVKVGSYPREVAVAPYGK”, which protein production is on record?
The protein production was “failed”.

For “MKSLSEHVDFSESKTGNSSSESETGQTLIFLLADLAQRQQIDNTLQSFLNESNAEEILLVANIRCADDEVWLRKYCARFPSVNAILNRRAKSATVLEAQGRWLARYRSQVVLSVDCDESGVKILRKVLPFFTPPVAMEMQKSTLSCQPGEQGLTLIIPAHDCDLYLTDCLASALVIESDKTLVVVDDGSLDDTHGVIAGFASQYPEIIDHISICKASGLPAVPRNIGLASVQTDTFGFIDADDWISPGEYTSALYEMQQMSADIATAAGFTRHYPDRTESLLQKCFTIPENEPANVLEGSFFSNIWNRIYARSILLRSGAYFPRTHFSEDFCFSVWSHFYAEKTIQVSVSFYHHRYGRQGSTTDNRAGSGAFSHITEFHRELEMYLADPFMRKALATILRKRMGSFQYTLKLLPPELIQPFKTALQEMLKPLNRYFISDKEPNKRDIATFAALGISDLLYQRPRSKFLGMRNWGRKWLGMYQQLTKRESHENS”, which protein production is on record?
Its protein production is “failed”.
